Results taken from patent publication US20190381169A1, “PHARMACEUTICAL COMBINATIONS FOR IMMUNOTHERAPY” (Technische Universitat Dresden, priority 2014, published 2019).

Target: T1, p75^NTR (Homo sapiens, UniProt P08138)
T1 sequence (P08138 29-427): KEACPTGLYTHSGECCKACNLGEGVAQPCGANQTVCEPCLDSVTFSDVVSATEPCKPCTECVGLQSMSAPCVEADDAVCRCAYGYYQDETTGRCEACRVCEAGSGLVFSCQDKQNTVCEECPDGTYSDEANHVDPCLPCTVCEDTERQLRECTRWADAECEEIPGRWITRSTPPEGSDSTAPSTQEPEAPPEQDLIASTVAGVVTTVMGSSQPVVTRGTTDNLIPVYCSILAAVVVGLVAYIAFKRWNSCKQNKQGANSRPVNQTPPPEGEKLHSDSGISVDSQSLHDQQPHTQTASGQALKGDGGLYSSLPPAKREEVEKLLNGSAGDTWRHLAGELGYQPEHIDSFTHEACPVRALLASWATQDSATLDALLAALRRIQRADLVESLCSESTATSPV
Assay: IFNα secretion by ODN 2216 stimulated human PDC (ELISA)
Format: cell-based
Design: nerve growth factor receptor p75^NTR, which is expressed by human and murine plasmacytoid dendritic cells (PDC); endogenous in cells; host or cells: primary human plasmacytoid dendritic cells (BDCA-4+ selection) from buffy coats or from peripheral blood of allergic donors
Conditions: ODN 2216 plus NGF 200 ng/ml vs ODN 2216 without NGF; 14 hours; p=0.0031
Experimental: Blood samples used for cell purification were obtained from two different sources: Fresh buffy coat samples, not older than 8 hours, served as the source of PDC used in oligodeoxynucleotides (ODN) and anti FcεRIα stimulation experiments. […]
Alike CD4^+ T helper cells isolation from peripheral blood mononuclear cells, total cell numbers were determined prior to purification of PDC. […] Magnetic cell separation procedure as described for first LS column was repeated for second MS column except that washing of the MS column was carried out with 500 μl PBS E/B. Purified PDC were counted and purity was assessed by flow cytometric analysis after staining the cells with monoclonal mouse anti human BDCA2-PE (Miltenyi Biotech) and monoclonal mouse anti human CD271-APC (Miltenyi Biotech). […]

**Q.** “NGF: Nerve growth factor, best characterized neurotrophin; natural p75^NTR agonist (R&D Systems)” was tested. Which IFNα secretion did it give?
**A.** The IFNα secretion was “significant reduction”.
